Reference: the supplement of paper PMC9876800

Tested on: peptide library, one residue held at a place counted from the S/T acceptor
Experiment: relative phosphorylation of the sub-library (ratio to the mean residue at this position); higher = residue favoured
How it was run: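 Purified recombinant kinases, either human or orthologue constructs, were incubated in 384-well plates with biotinylated degenerate peptide sub-libraries. Each sub-library fixed one residue at one position around a central Ser/Thr. Peptides at 50 μM and 50 μM ATP spiked with γ-32P-ATP were used for 90 min under kinase-specific conditions, and spots on streptavidin membranes were phosphorimaged and quantified by densitometry. Relative sub-library phosphorylation is expressed as a ratio to the mean residue at that position.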

Chain of GSK3B, construct: Full length, human (P49841 whole entry, looked up): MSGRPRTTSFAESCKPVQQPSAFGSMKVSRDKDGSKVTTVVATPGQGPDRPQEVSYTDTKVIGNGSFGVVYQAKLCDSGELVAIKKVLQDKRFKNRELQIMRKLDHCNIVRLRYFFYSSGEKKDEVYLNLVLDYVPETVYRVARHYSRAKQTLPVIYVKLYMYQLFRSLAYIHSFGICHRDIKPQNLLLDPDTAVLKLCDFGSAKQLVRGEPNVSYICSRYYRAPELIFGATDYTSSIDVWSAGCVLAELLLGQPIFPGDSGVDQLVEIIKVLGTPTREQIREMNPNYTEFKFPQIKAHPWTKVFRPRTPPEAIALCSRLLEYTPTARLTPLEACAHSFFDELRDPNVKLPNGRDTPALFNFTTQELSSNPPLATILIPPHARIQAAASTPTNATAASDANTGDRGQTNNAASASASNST
Chain of CDK19, construct: Full length, human (Q9BWU1 whole entry, looked up): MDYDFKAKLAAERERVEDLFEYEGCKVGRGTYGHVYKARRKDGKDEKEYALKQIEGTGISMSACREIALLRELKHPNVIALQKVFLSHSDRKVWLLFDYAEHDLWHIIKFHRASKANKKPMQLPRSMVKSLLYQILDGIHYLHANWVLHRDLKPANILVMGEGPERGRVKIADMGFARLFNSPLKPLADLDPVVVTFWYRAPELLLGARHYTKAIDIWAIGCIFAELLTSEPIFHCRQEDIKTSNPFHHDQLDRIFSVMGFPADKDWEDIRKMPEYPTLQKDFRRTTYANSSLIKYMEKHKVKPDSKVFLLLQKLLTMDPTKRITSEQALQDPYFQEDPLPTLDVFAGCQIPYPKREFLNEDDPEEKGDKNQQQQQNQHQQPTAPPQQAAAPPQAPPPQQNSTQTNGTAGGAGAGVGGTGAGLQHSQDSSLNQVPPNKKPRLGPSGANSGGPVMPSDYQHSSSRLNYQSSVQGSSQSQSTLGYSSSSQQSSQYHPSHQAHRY
Chain of PDK1, construct: Full length, human (Q15118 whole entry, looked up): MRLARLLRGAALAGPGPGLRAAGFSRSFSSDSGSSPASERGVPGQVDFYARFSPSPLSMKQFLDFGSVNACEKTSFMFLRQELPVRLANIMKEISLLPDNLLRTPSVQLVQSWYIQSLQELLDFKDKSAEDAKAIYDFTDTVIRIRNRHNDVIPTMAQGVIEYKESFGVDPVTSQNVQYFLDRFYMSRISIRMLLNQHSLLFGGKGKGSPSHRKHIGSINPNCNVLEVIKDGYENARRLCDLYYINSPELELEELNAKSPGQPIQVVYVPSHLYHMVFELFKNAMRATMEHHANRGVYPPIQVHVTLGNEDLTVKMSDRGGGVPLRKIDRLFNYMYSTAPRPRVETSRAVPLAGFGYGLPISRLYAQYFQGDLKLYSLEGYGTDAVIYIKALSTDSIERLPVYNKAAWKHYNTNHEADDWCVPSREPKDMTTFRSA

CDK19, construct: Full length, human (from UniProt Q9BWU1)
relative phosphorylation
Conditions	at +1	at +2	at +3	at +4	at -1	at -2	at -3	at -4	at -5
A fixed	0.247	1.28	1.17	0.978	1.14	1.69	1.08	1.05	0.905
D fixed	0.112	0.577	0.659	1.05	0.698	0.518	0.695	0.93	1.26
E fixed	0.114	0.592	0.564	0.915	0.416	0.463	0.881	1.1	1.23
F fixed	0.193	0.915	0.784	0.971	0.947	0.465	1.18	1.22	1.42
G fixed	0.865	1.39	1.39	1.15	1.64	0.829	1.27	1.07	1.02
H fixed	0.295	1.02	1.1	0.988	0.929	0.589	0.958	0.997	1.11
I fixed	0.378	0.721	0.633	0.857	0.238	0.935	0.602	1.01	0.863
K fixed	0.198	1.08	0.651	0.736	0.93	0.276	0.61	0.73	0.702
L fixed	0.271	1.09	0.685	0.948	0.948	1.09	0.67	1.04	0.878
M fixed	0.32	1.22	1.1	1.1	1.5	0.922	1.39	1.07	0.895
N fixed	0.371	0.959	1.33	1.02	0.918	0.658	1.26	0.741	0.879
P fixed	11.8	0.913	2.42	1.28	1.61	5.16	1.39	0.878	0.771
Q fixed	0.314	1.1	0.892	1.01	1	0.846	1.16	0.881	0.801
R fixed	0.186	1.51	0.934	0.919	1.53	0.393	0.674	0.875	0.844
V fixed	0.92	0.725	0.903	0.945	0.425	1.25	0.583	0.786	0.685
W fixed	0.248	1	0.881	1.24	1.01	0.498	1.45	1.34	1.08
Y fixed	0.196	0.925	0.918	0.888	1.11	0.423	1.15	1.28	1.65
pThr fixed	0.381	0.481	0.581	0.829	0.318	0.651	0.695	0.915	0.914
pTyr fixed	0.344	0.83	0.733	0.902	0.505	0.427	0.718	1.03	1.12

PDK1, construct: Full length, human (from UniProt Q15118)
relative phosphorylation
Conditions	at +1	at +2	at +3	at +4	at -1	at -2	at -3	at -4	at -5
A fixed	0.64	0.794	0.777	0.904	1.25	0.94	0.972	0.989	0.951
D fixed	0.63	1.03	1.5	1.01	1.58	0.752	0.799	0.88	0.943
E fixed	0.568	0.888	1.1	0.856	0.681	0.7	0.677	0.818	0.881
F fixed	1.18	1.15	1.64	1.17	1.04	1.26	1.28	1.18	1.24
G fixed	0.641	1.71	1.08	1.05	1.11	1.42	0.928	1.14	1.12
H fixed	0.804	1.09	0.87	1.06	1.25	1.26	1.08	0.957	1.1
I fixed	2.06	0.767	0.932	1	0.793	0.852	1.1	0.962	0.945
K fixed	0.624	0.808	0.622	0.794	0.655	0.704	0.77	0.832	0.824
L fixed	2.3	0.889	0.883	0.884	0.924	1.02	1.07	0.982	1.05
M fixed	1.34	0.989	1.02	1	0.976	1.08	1.12	1.19	1.1
N fixed	0.625	0.935	0.809	1.02	1.29	0.787	0.867	0.878	0.981
P fixed	0.607	0.902	1.1	1.08	0.864	0.799	0.912	1.02	0.722
Q fixed	0.727	1.04	0.803	0.884	0.801	0.869	0.852	0.883	0.679
R fixed	0.728	1.11	0.897	0.967	0.751	0.986	0.851	0.988	0.95
V fixed	1.28	0.813	0.948	0.926	0.823	0.83	0.94	0.831	0.917
W fixed	1.25	1.08	1.03	1.38	1.21	1.73	1.78	1.47	1.6
Y fixed	1.18	1.15	1.64	1.17	1.04	1.26	1.28	1.18	1.24
pThr fixed	0.538	0.662	0.863	0.876	0.572	0.524	0.666	0.846	0.933
pTyr fixed	0.723	0.951	0.689	0.919	0.694	0.892	0.885	1.2	1.05

GSK3B, construct: Full length, human (from UniProt P49841)
relative phosphorylation
Conditions	at +1	at +2	at +3	at +4	at -1	at -2	at -3	at -4	at -5
A fixed	0.927	1.01	0.893	0.871	1.05	1.09	1.63	1.02	1.15
D fixed	0.826	0.857	0.911	0.938	0.885	0.92	0.898	0.969	0.83
E fixed	0.818	0.917	1.23	2.42	0.855	0.898	0.865	0.851	0.83
F fixed	0.942	1.05	1.06	0.871	0.863	0.855	0.812	0.918	1.05
G fixed	0.928	0.92	0.966	0.843	1.17	1.1	1.47	1.18	1.21
H fixed	0.985	1.16	1.1	0.988	1.02	0.885	0.883	0.989	1.02
I fixed	1.02	0.984	0.929	0.795	0.889	1.01	0.871	0.913	1
K fixed	1.02	1.02	1.01	0.983	1.1	1.12	0.935	1.11	0.979
L fixed	0.966	0.994	0.923	0.849	0.916	0.882	0.785	0.966	1.03
M fixed	0.975	0.99	1.06	0.911	1.08	0.882	0.891	0.943	0.968
N fixed	0.963	1.12	0.983	0.992	1.04	0.935	0.899	1.02	0.855
P fixed	1.77	0.904	0.972	0.942	1.18	1.23	1.13	1.08	1.1
Q fixed	1	1.09	0.986	0.92	1.09	0.931	0.889	0.942	0.895
R fixed	1.01	1.05	1.05	0.848	1.06	1.48	1.36	1.06	0.973
V fixed	1.02	0.908	0.887	0.8	0.916	0.977	0.904	0.982	1.04
W fixed	0.977	1.01	0.997	1.03	0.962	0.957	0.913	1.05	1.08
Y fixed	0.854	1.01	1.04	1	0.931	0.846	0.866	1.02	0.997
pThr fixed	1.01	1	3.53	66.5	0.946	1.02	1.15	1.16	0.927
pTyr fixed	1.14	1.04	2.26	2.62	1.66	1.13	1	1.15	0.929
